Reference: PMC8938504 (Nature Communications, 2022)

Tests used:
6×His-tagged AVR-Pia = 6×His-tagged AVR-Pia (Magnaporthe oryzae); assay: SPR; […] (single-cycle kinetics, […]; 25 °C; 20 mM Tris pH 8, 150 mM NaCl, 0.5 mM DTT; […]; conditions: both partners purified
6×His-tagged AVR1-CO39 = 6×His-tagged AVR1-CO39 (Magnaporthe oryzae); assay: as above; conditions: both partners purified
Sequence of 6×His-tagged AVR1-CO39 (Magnaporthe oryzae) (F7J0N2 982-1116): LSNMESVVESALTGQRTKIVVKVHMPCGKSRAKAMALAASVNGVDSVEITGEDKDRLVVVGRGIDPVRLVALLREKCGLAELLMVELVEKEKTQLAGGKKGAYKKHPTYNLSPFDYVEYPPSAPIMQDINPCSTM

Sequence of 6×His-tagged AVR-Pia (Magnaporthe oryzae) (F7J0N2 982-1116): as above

B1: MBP:RGA5_HMA (wild-type RGA5 HMA domain fused to the maltose-binding protein) (domain or fragment)
chain: SALTGQRTKIVVKVHMPCGKSRAKAMALAASVNGVDSVEITGEDKDRLVVVGRGIDPVRLVALLREKCGLAELLMVELVEKE
- Kd (6×His-tagged AVR-Pia): 7.2 µM
- Kd (6×His-tagged AVR1-CO39): 4.9 µM
